Common to all, as to assay: IEDB peptide-MHC binding, purified MHC/competitive/radioactivity; filed as Kd, often an IC50 or EC50 that approximates it; ≥ and ≤ were set here for values at or beyond the usual limits of such assays
Assay [1] addresses HLA-A*03:01.
Assay [2] concerns the target HLA-A*11:01.
The target in assay [3] is HLA-A*31:01.
For assay [4], the target named is HLA-A*33:01.
Assay [5] deals with HLA-A*68:01.
Where [6] appears, read: source organism: SARS coronavirus Tor2.
The mark [7] stands for this setting: source organism: Dengue virus 2 Jamaica/1409/1983.
Where [8] appears, read: source organism: Dengue virus 1 Brazil/97-11/1997.
The mark [9] stands for this setting: source organism: Mammarenavirus guanaritoense.
Where [10] appears, read: source organism: Vaccinia virus WR.
[11] abbreviates: source organism: Lassa virus Josiah.

A value given as a limit tells only on which side of the number the result lay.

As to SICSTMTNR, the Kd was 864 nM in assay [1] (setting [6]); 13 nM in assay [2] (setting [6]); 1.08 nM in assay [3] (setting [6]); 42 nM in assay [4] (setting [6]); 46.4 nM in assay [5] (setting [6]).
Regarding MSYSMCTGK, the dissociation constant (Kd) in assay [1] (setting [7]) was 4.21 nM; in assay [2] (setting [7]) it was 34.2 nM; in assay [5] (setting [7]) it was 81.8 nM.
VLLGSFGCK: in assay [1] (setting [8]), the Kd came out at 11.9 nM.
In the case of TNFESFTVK, the Kd in assay [1] (setting [9]) was 365 nM; in assay [2] (setting [9]), 1440 nM; in assay [3] (setting [9]) it was 270 nM; in assay [4] (setting [9]), ≥ 77700 nM; in assay [5] (setting [9]), 24.3 nM.
On to KFYGPFVDR, for which the Kd in assay [1] (setting [6]) amounted to 7680 nM; in assay [2] (setting [6]) it was 1420 nM; in assay [3] (setting [6]) it was 0.454 nM; in assay [4] (setting [6]) it was 2040 nM; in assay [5] (setting [6]), 3260 nM.
For TQSRDLEDFK the same measures were 19300 nM, 12500 nM, 14600 nM, ≥ 70000 nM and ≥ 29000 nM.
Turning to KQMYKTPTLK, the dissociation constant (Kd) stood at 2.31 nM in assay [1] (setting [6]); 17.5 nM in assay [2] (setting [6]); 95.3 nM in assay [3] (setting [6]); 11400 nM in assay [4] (setting [6]); 8220 nM in assay [5] (setting [6]).
On to IVTVTTKDY, for which the dissociation constant (Kd) in assay [1] (setting [10]) is 1930 nM; in assay [2] (setting [10]), ≥ 32600 nM; in assay [3] (setting [10]), 8980 nM; in assay [4] (setting [10]), 18400 nM; in assay [5] (setting [10]), 1690 nM.
On to KTKISVEKIK, for which the equilibrium dissociation constant (Kd) in assay [1] (setting [10]) is 4200 nM; in assay [2] (setting [10]), 275 nM; in assay [3] (setting [10]) it was 818 nM; in assay [4] (setting [10]), ≥ 70000 nM; in assay [5] (setting [10]) it was ≥ 24700 nM.
As to SMLNIMNRR, the equilibrium dissociation constant (Kd) in assay [3] (setting [8]) was 1.54 nM; in assay [4] (setting [8]), 68.3 nM.
On to IISDMYDPR, for which the Kd in assay [1] (setting [6]) worked out at 12800 nM; in assay [2] (setting [6]) it was 122 nM; in assay [3] (setting [6]) it was 325 nM; in assay [4] (setting [6]), 1340 nM; in assay [5] (setting [6]), 5.41 nM.
GIPYCNYSK: the Kd is 3330 nM in assay [1] (setting [11]); 118 nM in assay [2] (setting [11]); ≥ 45000 nM in assay [3] (setting [11]); ≥ 24200 nM in assay [4] (setting [11]); 444 nM in assay [5] (setting [11]).
Regarding MFAVGLLFR, the Kd in assay [3] (setting [8]) was ≥ 66700 nM; in assay [4] (setting [8]), 1.05 nM; in assay [5] (setting [8]), 61.9 nM.
As for ISIISIRPR, the dissociation constant Kd in assay [1] (setting [10]) is ≥ 24100 nM; in assay [2] (setting [10]), 263 nM; in assay [3] (setting [10]), 3.69 nM; in assay [4] (setting [10]), 701 nM; in assay [5] (setting [10]) it was 43.4 nM.
For STTDAEACY the same measures were ≥ 47800 nM, 432 nM, ≥ 75400 nM, 17400 nM and 163 nM.
For LLHCVTESYK the same measures were 14.7 nM, 128 nM, 207 nM, 3270 nM and 23.6 nM.
As to KQIRSAAKK, the equilibrium dissociation constant (Kd) in assay [1] (setting [6]) was 43.1 nM; in assay [2] (setting [6]), 73.7 nM; in assay [3] (setting [6]) it was 1080 nM; in assay [4] (setting [6]) it was ≥ 77700 nM; in assay [5] (setting [6]), 1330 nM.
On to AIEKDRLDK, for which the dissociation constant Kd in assay [1] (setting [10]) was ≥ 78000 nM; in assay [2] (setting [10]), 1120 nM; in assay [3] (setting [10]) it was ≥ 77900 nM; in assay [4] (setting [10]), ≥ 77700 nM; in assay [5] (setting [10]) it was ≥ 77700 nM.
In the case of FLELKRGIY, the dissociation constant (Kd) in assay [1] (setting [10]) was ≥ 78000 nM; in assay [2] (setting [10]), 10700 nM; in assay [3] (setting [10]), 2200 nM; in assay [4] (setting [10]), 4540 nM; in assay [5] (setting [10]) it was 1880 nM.
In the case of KFQPESPAR, in assay [3] (source organism: Dengue virus 4 Philippines/H241/1956), the dissociation constant (Kd) was determined as 64.2 nM.
For the sequence MALFLEEMLR, the Kd was determined as 19.6 nM in assay [3] (setting [7]), 27.2 nM in assay [4] (setting [7]) and 11.8 nM in assay [5] (setting [7]).
With NSCSIGNVTR, the Kd in assay [1] (setting [10]) was ≥ 70100 nM; in assay [2] (setting [10]), 890 nM; in assay [3] (setting [10]), 34.1 nM; in assay [4] (setting [10]), 16.1 nM; in assay [5] (setting [10]), 6.73 nM.
Take ETLNEYKQLY: the dissociation constant (Kd) was 15100 nM in assay [1] (setting [10]); 12400 nM in assay [2] (setting [10]); ≥ 41300 nM in assay [3] (setting [10]); 541 nM in assay [4] (setting [10]); 331 nM in assay [5] (setting [10]).
Consider AVEDEEFWK, for which the dissociation constant (Kd) in assay [2] (source organism: Dengue virus 3 Sri Lanka/1266/2000) came to 939 nM.
Take SMFEPEREK: the Kd in assay [1] (setting [7]) was found to be 83.6 nM; in assay [2] (setting [7]), 1140 nM.
On to QLPQGTTLPK, for which the Kd in assay [1] (setting [6]) is 52.5 nM; in assay [2] (setting [6]), 396 nM; in assay [3] (setting [6]), 8640 nM; in assay [4] (setting [6]), ≥ 37000 nM; in assay [5] (setting [6]), 317 nM.
RVSTGSQLAK: the Kd is 75.5 nM in assay [1] (setting [8]) and 75.7 nM in assay [2] (setting [8]).

The record behind these values is the Immune Epitope Database (IEDB).
